Data: FireProtDB (doi:10.1021/bi00102a015)

Details: Rhodobacter capsulatus (strain ATCC BAA-309 / NBRC 16581 / SB1003); pH 7.5; 25 °C; GdnHCl; CD; Tris-HCl 20 mM; NaCl 40 mM; whole UniProt chain shown

B1: Cytochrome c2 wild type, P00094 (protein)
chain: MKISLTAATVAALVLAAPAFAGDAAKGEKEFNKCKTCHSIIAPDGTEIVKGAKTGPNLYGVVGRTAGTYPEFKYKDSIVALGASGFAWTEEDIATYVKDPGAFLKEKLDDKKAKTGMAFKLAKGGEDVAAYLASVVK
With B1 the denaturant m value was 2.7 kcal/mol/M, the “denaturant midpoint (higher = more stable)” value was 1.7 M and the unfolding free energy was 4.4 kcal/mol.
